How the values were obtained:
[1] = system: PU.1 expression in sorted HSC; assay: Quantitative RT-PCR of PU.1 expression in sorted HSC in culture; format: cell-based, mice; details: 16 h in culture with cytokine, 100 ng/ml
Method: CD150+CD34− KSLF HSC or CD150+CD34− CD48− KSLF HSC (single cells) were sorted into S-clone SF-03 medium (Sanko Jyunyaku) with 10% FBS supplemented with 100 U/ml penicillin and […] streptomycin (both Invitrogen) and cultivated in uncoated U-Shape 96 well plates (Greiner) in 100 μl SCM, 20 ng/ml rSCF, 50 ng/ml rTPO+/−100 ng/ml rM-CSF or 100 ng/ml rGM-CSF or 100 ng/ml rG-CSF. All cytokines were murine and from PeproTech. Cell viability was analyzed by AnnexinV and Propidium iodide FACS staining^35.
Total RNA was isolated and reverse transcribed with μMACS™ ONE-STEP T7 template kit (Miltenyi Biotec) and analysed by quantitative real-time PCR using TAQMAN® Universal PCR Master Mix and a 7500 Fast Real Time PCR System sequence detection system (both Applied Biosystem), following the manufacturers' instructions.

[2] = system: Pseudomonas aeruginosa; assay: Survival after Pseudomonas aeruginosa infection following HS/PC transplantation; format: in vivo, mice; details: P. aeruginosa infection on Day8 after irradiation and HS/PC transplantation; three injections of 10 μg M-CSF
Method: (§1) To study the functional impact of MCSF mediated HSC commitment during infections, two separate series of experiments were performed. In all experiments, after lethal irradiation of recipients, 2500 HS/PC with 200,000 cKit-carrier cells from donors were grafted.
(§2) Uninfected mice that received HS/PC transplants served as controls for efficient life saving transplantation (black line; FIGS. 8A, 8B and FIGS. 10A, 10B; n=8). Two other groups of mice received either 3 injections of MCSF (rhMCSF or Bacculo virus produced mMCSF) or PBS on the day of HS/PC transplantation.
(§3) One-week post transplantation these mice were challenged with lethal doses of either the bacteria Pseudomonas aeruginosa or the opportunistic fungus Aspergillus fumigatus.
CD45.1 and C57Bl/6 mice were obtained from Charles River. 10-14 weeks old sex-matched CD45.2 recipients were reconstituted as described^3 with bone marrow derived KSL (c-Kit(CD117)+, Sca+, Lin−) HS/PC isolated from 6-8 weeks old CD45.1. For in vivo injections the indicated concentrations of M-CSF and/or sorted cells were injected in 100-200 μl of PBS into the retro-orbital sinus. For HS/PC transplantation 2500 KLS HS/PC were sorted from CD45.1 mice and mixed with 200,000 cKit− CD45.2 or cKit−, Terr119+ carrier cells prior to injection into lethally irradiated (160 kV, 25 mA, 6.31 Gy) CD45.2 recipient mice. […]

[3] = system: Pseudomonas aeruginosa; assay: Bacterial tissue load quantification; format: in vivo, mice; details: 18 h after infection
Method: The infected mice were killed; the organs (spleen, lungs, liver and heart) were harvested and weighed. To determine CFUs per gram of tissue serial dilutions of tissue homogenates were prepared in PBS and plated on Pseudomonas Isolation Agar (PIA) (Difco laboratories) supplemented with appropriate antibiotics and incubated overnight at 37° C. The colonies were counted after 16-24 h.
For analysis of bacterial load, mice were killed at 18 h after infection, tissue homogenates were prepared from spleen, lungs, liver and heart, and were plated to determine CFU.

[4] = system: Aspergillus fumigatus; assay: Survival after Aspergillus fumigatus infection following HS/PC transplantation; format: in vivo, mice; details: A. fumigatus infection on D8 after irradiation and HS/PC transplantation; three injections of 10 μg M-CSF
Method: as §1, §2, §3
Each mouse received three injections of 10 μg M-CSF: 1 h before HS/PC transplantation; 6 h and 18 h post-transplantation. Human M-CSF (rhMCSF, Chiron Corporation Inc., USA, now part of Novartis AG) and Mouse M-CSF was expressed in baculovirus (Bac. virus mMCSF^56) were used for the study.
Aspergillus fumigatus FGSC 1100 was provided by the Centre International de Ressources Microbiennes—Champignons Filamenteux (CIRM-CF, Marseille, France). For each experiment, cultures were grown on Malt agar medium (2% malt extract, 2% Bacto-agar DIFCO) for 5 days at 25° C. Conidial suspension was prepared in sterile saline according to Bitmansour et al. (2002)^55. […]

[5] = system: Aspergillus fumigatus; assay: Fungal culture of infected organs; format: in vivo; details: lungs, liver and heart; 48 h after infection; versus untreated mice
Method: The organs (lungs, liver, heart and spleen) were harvested, weighed and tissue homogenates were prepared in PBS. The homogenates were serially diluted and 200 μL or each dilution was plated on Sabouraud dextrose agar (DIFCO). The plates were incubated at 25° C. and pictures were taken after 3-5 days.
Furthermore in the mice succumbing to infection death was slightly delayed from D9-D14 in untreated mice to D10-D15 in the rhMCSF treated group. For analysis of fungal load, mice were killed at 48 h after infection and tissue homogenates were prepared from lungs, liver and heart. […] Fungal tissue cultures were incubated beyond 96 h to verify the typical colony morphology of A. fumigatus.

B1: GM-CSF: murine granulocyte-macrophage colony-stimulating factor from PeproTech (protein, UniProt P01587 18-141, looked up)
Granulocyte-macrophage …: APTRSPITVTRPWKHVEAIKEALNLLDDMPVTLNEEVEVVSNEFSFKKLTCVQTRLKIFEQGLRGNFTKLKGALNMTASYYQTYCPPTPETDCETQVTTYADFIDSLKTFLTDIPFECKKPGQK
[1]
  PU.1 expression in FACS purified HSC: not

B2: G-CSF: murine granulocyte colony-stimulating factor from PeproTech (protein, UniProt P09920 31-208, looked up)
Granulocyte …: VPLVTVSALPPSLPLPRSFLLKSLEQVRKIQASGSVLLEQLCATYKLCHPEELVLLGHSLGIPKASLSGCSSQALQQTQCLSQLHSGLCLYQGLLQALSGISPALAPTLDLLQLDVANFATTIWQQMENLGVAPTVQPTQSAMPAFTSAFQRRAGGVLAISYLQGFLETARLALHHLA
[1]
  PU.1 expression in FACS purified HSC: not

B3: rhMCSF: Human M-CSF (rhMCSF, Chiron Corporation Inc., USA, now part of Novartis AG) (protein, UniProt P09603 33-554, looked up)
Macrophage colony-stimulating …: EEVSEYCSHMIGSGHLQSLQRLIDSQMETSCQITFEFVDQEQLKDPVCYLKKAFLLVQDIMEDTMRFRDNTPNAIAIVQLQELSLRLKSCFTKDYEEHDKACVRTFYETPLQLLEKVKNVFNETKNLLDKDWNIFSKNCNNSFAECSSQDVVTKPDCNCLYPKAIPSSDPASVSPHQPLAPSMAPVAGLTWEDSEGTEGSSLLPGEQPLHTVDPGSAKQRPPRSTCQSFEPPETPVVKDSTIGGSPQPRPSVGAFNPGMEDILDSAMGTNWVPEEASGEASEIPVPQGTELSPSRPGGGSMQTEPARPSNFLSASSPLPASAKGQQPADVTGTALPRVGPVRPTGQDWNHTPQKTDHPSALLRDPPEPGSPRISSLRPQGLSNPSTLSAQPQLSRSHSSGSVLPLGELEGRRSTRDRRSPAEPEGGPASEGAARPLPRFNSVPLTDTGHERQSEGSFSPQLQESVFHLLVPSVILVLLAVGGLLFYRWRRRSHQEPQRADSPLEQPEGSPLTQDDRQVELPV
[2]
  survival: 50%
[3]
  moribund mice: two to three of the 10 mice
[3]; spleen, lungs, liver and heart, versus untreated mice
  tissue load of bacteria: significant decrease
[4]
  survival: 40%
[5]
  tissue load of fungal colonies: significant decrease

B4: mouse MCSF: Mouse M-CSF expressed in baculovirus (protein, UniProt P07141 33-552, looked up)
Macrophage colony-stimulating …: KEVSEHCSHMIGNGHLKVLQQLIDSQMETSCQIAFEFVDQEQLDDPVCYLKKAFFLVQDIIDETMRFKDNTPNANATERLQELSNNLNSCFTKDYEEQNKACVRTFHETPLQLLEKIKNFFNETKNLLEKDWNIFTKNCNNSFAKCSSRDVVTKPDCNCLYPKATPSSDPASASPHQPPAPSMAPLAGLAWDDSQRTEGSSLLPSELPLRIEDPGSAKQRPPRSTCQTLESTEQPNHGDRLTEDSQPHPSAGGPVPGVEDILESSLGTNWVLEEASGEASEGFLTQEAKFSPSTPVGGSIQAETDRPRALSASPFPKSTEDQKPVDITDRPLTEVNPMRPIGQTQNNTPEKTDGTSTLREDHQEPGSPHIATPNPQRVSNSATPVAQLLLPKSHSWGIVLPLGELEGKRSTRDRRSPAELEGGSASEGAARPVARFNSIPLTDTGHVEQHEGSSDPQIPESVFHLLVPGIILVLLTVGGLLFYKWKWRSHRDPQTLDSSVGRPEDSSLTQDEDRQVELPV
[2]
  survival: 87.5%
[4]
  survival: 60%

From US10709762B2, “Use of M-CSF for preventing or treating myeloid cytopenia and related complications” (priority 2013, dated 2020)
